# Data as given in US20250163164A1 (LANOVA MEDICINES DEVELOPMENT, published 2025).
# Numbering of substitutions follows the chain as printed.
# T1: human interleukin 13 receptor subunit alpha 2 (IL-13RA2) (human, UniProt Q14627 27-380)
# T1 construct: whole, on cells; also called IL-13Rα2; CD213A2
# T1 sequence (looked up): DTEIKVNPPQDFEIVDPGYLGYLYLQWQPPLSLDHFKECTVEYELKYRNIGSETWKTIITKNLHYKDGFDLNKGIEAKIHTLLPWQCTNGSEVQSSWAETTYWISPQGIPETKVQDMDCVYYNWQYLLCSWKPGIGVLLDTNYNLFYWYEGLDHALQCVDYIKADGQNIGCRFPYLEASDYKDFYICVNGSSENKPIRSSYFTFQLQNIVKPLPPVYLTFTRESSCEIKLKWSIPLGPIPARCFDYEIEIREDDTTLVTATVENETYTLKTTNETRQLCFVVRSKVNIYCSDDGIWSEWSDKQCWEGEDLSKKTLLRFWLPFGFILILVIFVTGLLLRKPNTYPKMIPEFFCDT
# B1: 57F8H3F1 H2L2 hIgG1 (antibody, V domains shown)
# VH: QVQLVQSGAEVVKPGASVKVSCKASGYTFTNYWMNWVRQAPGQGLEWIGRIDAYETETHYNQKFRDRVTMTVDTSTSTVYMELSSLRSEDTAVYYCARGYGHYYGVDYWGQGTLVTVSS
# VL: DIQMTQSPSSLSASVGDRVTITCRASENVGNFGISFVNWFQQKPGKAPKLLIYAASNLGSGDPSRFSGSGSGTDFTLTISSLQPEDFATYFCQQSKGVPWTFGQGTKVEIK
# notes: humanized, hIgG1
# B2: 72B4H4 H2L2 hIgG1 (antibody, V domains shown)
# VH: B1 VH with E55A, T56G, R65K, H102D, Y103A, V106M, Y108H
# VL: B1 VL with N28S, G30D, F32Y, V37M, N57R, L58Q, G97E
# notes: humanized, hIgG1
# B3: 57F8H3F1 H4L4 hIgG1 (antibody, V domains shown)
# VH: B1 VH with V20L, R38K, A40R, V68A, T69I, M70L, T74K, V79A, S84R
# VL: B1 VL with Q3V, M4L, V19A, A47P, S64A, Q104G, V108L
# notes: humanized, hIgG1
# B4: 57F8H3F1 H3L2 hIgG1 (antibody, V domains shown)
# VH: B1 VH with V20L, R38K, V68A, M70L, T74K
# VL: B1 VL
# notes: humanized, hIgG1
# B5: 57F8H3F1 H2L3 hIgG1 (antibody, V domains shown)
# VH: B1 VH
# VL: B1 VL with M4L, S64A, Q104G
# notes: humanized, hIgG1
# B6: 57F8H3F1 H4L2 hIgG1 (antibody, V domains shown)
# VH: B1 VH with V20L, R38K, A40R, V68A, T69I, M70L, T74K, V79A, S84R
# VL: B1 VL
# notes: humanized, hIgG1
# B7: 57F8H3F1 H2L4 hIgG1 (antibody, V domains shown)
# VH: B1 VH
# VL: B1 VL with Q3V, M4L, V19A, A47P, S64A, Q104G, V108L
# notes: humanized, hIgG1
# B8: 57F8H3F1 H2L1 hIgG1 (antibody, V domains shown)
# VH: B1 VH
# VL: B1 VL with F40Y, D62V, F91Y
# notes: humanized, hIgG1
# B9: 57F8H3F1 H1L2 hIgG1 (antibody, V domains shown)
# VH: B1 VH with V12K, I48M, V72R
# VL: B1 VL
# notes: humanized, hIgG1
# B10: 72B4H4 H1L4 hIgG1 (antibody, V domains shown)
# VH: B1 VH with V12K, I48M, E55A, T56G, R65K, V72R, H102D, Y103A, V106M, Y108H
# VL: DIVLTQSPSSLSASVGDRATITCRASESVDNYGISFMNWFQQKPGKPPKLLIYAASRQGSGDPARFSGSGSGTDFTLTISSLQPEDFATYFCQQSKEVPWTFGGGTKLEIK
# notes: humanized, hIgG1
# B11: 57F8H3F1 H1L1 hIgG1 (antibody, V domains shown)
# VH: B1 VH with V12K, I48M, V72R
# VL: B1 VL with F40Y, D62V, F91Y
# notes: humanized, hIgG1
# B12: 57F8H3F1 H3L3 hIgG1 (antibody, V domains shown)
# VH: B1 VH with V20L, R38K, V68A, M70L, T74K
# VL: B1 VL with M4L, S64A, Q104G
# notes: humanized, hIgG1
# B13: 57F8H3F1 H4L1 hIgG1 (antibody, V domains shown)
# VH: B1 VH with V20L, R38K, A40R, V68A, T69I, M70L, T74K, V79A, S84R
# VL: B1 VL with F40Y, D62V, F91Y
# notes: humanized, hIgG1
# B14: 57F8H3F1 H3L4 hIgG1 (antibody, V domains shown)
# VH: B1 VH with V20L, R38K, V68A, M70L, T74K
# VL: B1 VL with Q3V, M4L, V19A, A47P, S64A, Q104G, V108L
# notes: humanized, hIgG1
# B15: 57F8H3F1 H1L3 hIgG1 (antibody, V domains shown)
# VH: B1 VH with V12K, I48M, V72R
# VL: B1 VL with M4L, S64A, Q104G
# notes: humanized, hIgG1
# B16: 57F8H3F1 H4L3 hIgG1 (antibody, V domains shown)
# VH: B1 VH with V20L, R38K, A40R, V68A, T69I, M70L, T74K, V79A, S84R
# VL: B1 VL with M4L, S64A, Q104G
# notes: humanized, hIgG1
# B17: 72B4H4 H1L1 hIgG1 (antibody, V domains shown)
# VH: B1 VH with V12K, I48M, E55A, T56G, R65K, V72R, H102D, Y103A, V106M, Y108H
# VL: B1 VL with N28S, G30D, F32Y, V37M, F40Y, N57R, L58Q, D62V, F91Y, G97E
# notes: humanized, hIgG1
# B18: 72B4H4 H1L3 hIgG1 (antibody, V domains shown)
# VH: B1 VH with V12K, I48M, E55A, T56G, R65K, V72R, H102D, Y103A, V106M, Y108H
# VL: B10 VL with V3Q, A19V, P47A, L108V
# notes: humanized, hIgG1
# B19: 57F8H3F1 H1L4 hIgG1 (antibody, V domains shown)
# VH: B1 VH with V12K, I48M, V72R
# VL: B1 VL with Q3V, M4L, V19A, A47P, S64A, Q104G, V108L
# notes: humanized, hIgG1
# B20: 57F8H3F1 H3L1 hIgG1 (antibody, V domains shown)
# VH: B1 VH with V20L, R38K, V68A, M70L, T74K
# VL: B1 VL with F40Y, D62V, F91Y
# notes: humanized, hIgG1
# B21: 72B4H4 H1L2 hIgG1 (antibody, V domains shown)
# VH: B1 VH with V12K, I48M, E55A, T56G, R65K, V72R, H102D, Y103A, V106M, Y108H
# VL: B1 VL with N28S, G30D, F32Y, V37M, N57R, L58Q, G97E
# notes: humanized, hIgG1
# B22: 61H8C1 H2L2 hIgG1 (antibody, V domains shown)
# VH: QVQLVQSGAEVAKPGASVKVSCKASGYTFTSYWTQWIRQAPGQGLEGMGAIYPGDDDTSYNQKFKGRVTMTADTSTSTVYMELSSLRSEDTAVYYCARGATLLRPFPYWGQGTLVTVSS
# VL: DIQMTQSPSSLSTSVGDRVTITCKASQDVSTAVAWYQQKPGKSPKLLIYSASYRYTGVPSRFSGSGSGTDFTLTISSLQPEDFATYSCQQHYSIPPTFGQGTKLEIK
# notes: humanized, hIgG1
# B23: 61H8C1 H4L4 hIgG1 (antibody, V domains shown)
# VH: B22 VH with V20L, R38K, M48I, R67K, V68A, M70L, T74K, V79A, E82Q
# VL: B22 VL with Q3V, S60D, S63T, L73F, L78V, Q100G
# notes: humanized, hIgG1
# B24: 61H8C1 H4L1 hIgG1 (antibody, V domains shown)
# VH: B22 VH with V20L, R38K, M48I, R67K, V68A, M70L, T74K, V79A, E82Q
# VL: B22 VL with T13A, S43A, S87Y
# notes: humanized, hIgG1
# B25: 61H8C1 H3L3 hIgG1 (antibody, V domains shown)
# VH: B22 VH with M48I, V68A, M70L, T74K, E82Q
# VL: B22 VL with S60D, L73F, Q100G
# notes: humanized, hIgG1
# B26: 61H8C1 H1L2 hIgG1 (antibody, V domains shown)
# VH: B22 VH with A12K, I37V, G47W, A72R
# VL: B22 VL
# notes: humanized, hIgG1
# B27: 61H8C1 H2L3 hIgG1 (antibody, V domains shown)
# VH: B22 VH
# VL: B22 VL with S60D, L73F, Q100G
# notes: humanized, hIgG1
# B28: 61H8C1 H4L3 hIgG1 (antibody, V domains shown)
# VH: B22 VH with V20L, R38K, M48I, R67K, V68A, M70L, T74K, V79A, E82Q
# VL: B22 VL with S60D, L73F, Q100G
# notes: humanized, hIgG1
# B29: 61H8C1 H4L2 hIgG1 (antibody, V domains shown)
# VH: B22 VH with V20L, R38K, M48I, R67K, V68A, M70L, T74K, V79A, E82Q
# VL: B22 VL
# notes: humanized, hIgG1
# B30: 61H8C1 H2L4 hIgG1 (antibody, V domains shown)
# VH: B22 VH
# VL: B22 VL with Q3V, S60D, S63T, L73F, L78V, Q100G
# notes: humanized, hIgG1
# B31: 61H8C1 H3L4 hIgG1 (antibody, V domains shown)
# VH: B22 VH with M48I, V68A, M70L, T74K, E82Q
# VL: B22 VL with Q3V, S60D, S63T, L73F, L78V, Q100G
# notes: humanized, hIgG1
# B32: 61H8C1 H3L2 hIgG1 (antibody, V domains shown)
# VH: B22 VH with M48I, V68A, M70L, T74K, E82Q
# VL: B22 VL
# notes: humanized, hIgG1
# B33: 61H8C1 H1L3 hIgG1 (antibody, V domains shown)
# VH: B22 VH with A12K, I37V, G47W, A72R
# VL: B22 VL with S60D, L73F, Q100G
# notes: humanized, hIgG1
# B34: 61H8C1 H3L1 hIgG1 (antibody, V domains shown)
# VH: B22 VH with M48I, V68A, M70L, T74K, E82Q
# VL: B22 VL with T13A, S43A, S87Y
# notes: humanized, hIgG1
# B35: 61H8C1 H1L1 hIgG1 (antibody, V domains shown)
# VH: B22 VH with A12K, I37V, G47W, A72R
# VL: B22 VL with T13A, S43A, S87Y
# notes: humanized, hIgG1
# B36: 61H8C1 H1L4 hIgG1 (antibody, V domains shown)
# VH: B22 VH with A12K, I37V, G47W, A72R
# VL: B22 VL with Q3V, S60D, S63T, L73F, L78V, Q100G
# notes: humanized, hIgG1
# B37: 61H8C1 H2L1 hIgG1 (antibody, V domains shown)
# VH: B22 VH
# VL: B22 VL with T13A, S43A, S87Y
# notes: humanized, hIgG1
# Molecular target: T1, human interleukin 13 receptor subunit …
# Assay: FACS on A375 cells
# Description: A375 cells that endogenously expressed IL-13RA2, were harvested from flasks. 100 μl of 1×10⁶ cells/ml of cells were incubated with primary humanized antibodies in 4-fold serial dilutions starting from 200 nM to 0.003 nM for 30 minutes on ice. After being washed with 200 μl of FACS buffer twice, cells were incubated with secondary antibody for 30 minutes on ice. Cells were washed with 200 μl of FACS buffer twice and analyzed by FACS.
Binder,EC50,Top (MFI)
B1,0.89 nM,7090 MFI
B2,1.48 nM,8700 MFI
B3,0.91 nM,7270 MFI
B4,1.25 nM,7420 MFI
B5,0.92 nM,7010 MFI
B6,0.75 nM,7340 MFI
B7,1.01 nM,7140 MFI
B8,0.38 nM,6910 MFI
B9,0.78 nM,7510 MFI
B10,0.98 nM,9040 MFI
B11,0.63 nM,7020 MFI
B12,1.62 nM,7610 MFI
B13,0.42 nM,7350 MFI
B14,1.3 nM,7610 MFI
B15,0.81 nM,7540 MFI
B16,0.8 nM,7180 MFI
B17,0.54 nM,8440 MFI
B18,1 nM,8900 MFI
B19,0.94 nM,7820 MFI

Binder,EC50,Top (MFI)
B20,0.71 nM,8160 MFI
B21,0.81 nM,8540 MFI
B22,0.15 nM,22400 MFI
B23,0.19 nM,21600 MFI
B24,0.17 nM,22200 MFI
B25,0.15 nM,20100 MFI
B26,0.15 nM,19600 MFI
B27,0.19 nM,22100 MFI
B28,0.18 nM,20800 MFI
B29,0.14 nM,21100 MFI
B30,0.18 nM,21900 MFI
B31,0.2 nM,22000 MFI
B32,0.17 nM,22300 MFI
B33,0.2 nM,20000 MFI
B34,0.15 nM,20600 MFI
B35,0.14 nM,20300 MFI
B36,0.17 nM,19800 MFI
B37,0.16 nM,22400 MFI
